Source: IntAct's records for PubMed 15147268

B1: Suppressor of kinetochore protein 1 (Schizosaccharomyces pombe (strain ATCC 38366 / 972)), Q9Y709 (parent)
chain: MSKIKLISSDNEEFVVDQLIAERSMLIKNMLEDVGEINVPIPLPNVSSNVLRKVLEWCEHHKNDLYSGTEEESDIRLKKSTDIDEWDRKFMAVDQEMLFEIVLASNYLDIKPLLDTGCKTVANMIRGKSPEDIRKTFNIPNDFTPEEEEQIRKENEWAEDR
partner: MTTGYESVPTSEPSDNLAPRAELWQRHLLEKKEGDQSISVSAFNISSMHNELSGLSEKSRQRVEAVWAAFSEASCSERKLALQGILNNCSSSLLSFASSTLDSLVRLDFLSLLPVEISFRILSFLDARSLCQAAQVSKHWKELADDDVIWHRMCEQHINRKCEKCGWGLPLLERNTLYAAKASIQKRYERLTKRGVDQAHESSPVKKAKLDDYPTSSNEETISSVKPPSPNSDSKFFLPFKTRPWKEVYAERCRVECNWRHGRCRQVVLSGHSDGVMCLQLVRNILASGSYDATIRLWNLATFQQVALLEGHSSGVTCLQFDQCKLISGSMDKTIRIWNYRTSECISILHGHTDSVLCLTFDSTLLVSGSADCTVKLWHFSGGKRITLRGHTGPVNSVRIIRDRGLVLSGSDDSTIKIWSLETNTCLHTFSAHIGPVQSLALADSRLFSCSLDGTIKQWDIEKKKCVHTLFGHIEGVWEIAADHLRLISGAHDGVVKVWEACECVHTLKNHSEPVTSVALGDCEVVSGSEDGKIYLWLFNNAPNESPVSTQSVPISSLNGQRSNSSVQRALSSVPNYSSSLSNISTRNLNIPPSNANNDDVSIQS
B2: Suppressor of kinetochore protein 1 (Schizosaccharomyces pombe (strain ATCC 38366 / 972)), Q9Y709 (parent)
chain: B1 chain
partner: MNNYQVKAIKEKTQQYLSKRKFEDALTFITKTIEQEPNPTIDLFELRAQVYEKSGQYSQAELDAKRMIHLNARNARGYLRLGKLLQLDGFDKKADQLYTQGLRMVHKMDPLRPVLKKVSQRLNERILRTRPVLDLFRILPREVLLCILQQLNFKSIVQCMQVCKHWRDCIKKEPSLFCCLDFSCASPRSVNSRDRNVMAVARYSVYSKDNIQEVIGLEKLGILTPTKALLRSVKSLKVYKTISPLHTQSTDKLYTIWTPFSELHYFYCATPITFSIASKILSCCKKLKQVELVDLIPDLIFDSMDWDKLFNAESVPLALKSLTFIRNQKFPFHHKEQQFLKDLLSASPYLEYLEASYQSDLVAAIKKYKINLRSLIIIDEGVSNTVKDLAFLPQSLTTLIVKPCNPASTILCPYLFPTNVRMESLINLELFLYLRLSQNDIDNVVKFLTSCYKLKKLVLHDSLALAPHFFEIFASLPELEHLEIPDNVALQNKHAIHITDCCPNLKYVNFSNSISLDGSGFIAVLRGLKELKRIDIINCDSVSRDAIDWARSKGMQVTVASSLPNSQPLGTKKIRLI
B3: Suppressor of kinetochore protein 1 (Schizosaccharomyces pombe (strain ATCC 38366 / 972)), Q9Y709 (parent)
chain: B1 chain
partner: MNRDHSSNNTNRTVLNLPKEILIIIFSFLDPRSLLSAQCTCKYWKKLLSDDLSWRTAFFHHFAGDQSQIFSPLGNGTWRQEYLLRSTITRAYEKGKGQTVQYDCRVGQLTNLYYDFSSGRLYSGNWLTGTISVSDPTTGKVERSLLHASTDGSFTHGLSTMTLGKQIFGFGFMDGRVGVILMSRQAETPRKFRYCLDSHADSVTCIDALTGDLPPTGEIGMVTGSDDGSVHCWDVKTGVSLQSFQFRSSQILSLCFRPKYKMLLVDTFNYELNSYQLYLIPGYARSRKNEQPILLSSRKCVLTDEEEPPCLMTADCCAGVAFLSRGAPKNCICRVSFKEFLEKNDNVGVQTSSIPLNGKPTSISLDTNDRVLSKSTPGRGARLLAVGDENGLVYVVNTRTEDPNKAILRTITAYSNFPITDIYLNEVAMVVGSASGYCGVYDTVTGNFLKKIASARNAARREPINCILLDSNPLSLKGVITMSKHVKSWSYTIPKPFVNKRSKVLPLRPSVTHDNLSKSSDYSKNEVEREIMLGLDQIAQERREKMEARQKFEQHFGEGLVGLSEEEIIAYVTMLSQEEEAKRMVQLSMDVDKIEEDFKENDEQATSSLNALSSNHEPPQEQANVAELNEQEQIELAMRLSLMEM

Variants of: B1
Settings: with pof1_schpo pof1, P87053

Variant	effect of a mutation on the interaction
MSKIKLISSDNEEFVVDQLIAERSMLIKNMLEDVGEINVPIPLPNVSSNVLRKVLEWCEHHKNDLYSGTEEESDIRLKKSTDIDEWDRKFMAVDQEMLFEIVLASNYLDTKPLLDTGCKTVANMIRGKSPEDIRKTFNIPNDFTPEEEEQIRKENEWAEDR [I110T]	decreasing interaction

Variants of: B2
Settings: with pof3_schpo pof3, O74991

Variant	effect of a mutation on the interaction
MSKIKLISSDNEEFVVDQLIAERSMLIKNMLEDVGEINVPIPLPNVSSNVLRKVLEWCEHHKNDLYSGTEEESDIRLKKSTDIDEWDRKFMAVDQEMLFEIVLASNYLDTKPLLDTGCKTVANMIRGKSPEDIRKTFNIPNDFTPEEEEQIRKENEWAEDR [I110T]	decreasing interaction

Variants of: B3
Settings: with pof10_schpo pof10, Q9P7W4

Variant	effect of a mutation on the interaction
MSKIKLISSDNEEFVVDQLIAERSMLIKNMLEDVGEINVPIPLPNVSSNVLRKVLEWCEHHKNDLYSGTEEESDIRLKKSTDIDEWDRKFMAVDQEMLFEIVLASNYLDTKPLLDTGCKTVANMIRGKSPEDIRKTFNIPNDFTPEEEEQIRKENEWAEDR [I110T]	decreasing interaction
